The values that follow come from patent US7923016.

In one test the target is CXC chemokine receptor 4 (CXCR4) on THP-1 cells (UniProt P61073). Put plainly: cell-based or functional assay.
Chain of CXC chemokine receptor 4 (CXCR4) on THP-1 cells (P61073 whole entry): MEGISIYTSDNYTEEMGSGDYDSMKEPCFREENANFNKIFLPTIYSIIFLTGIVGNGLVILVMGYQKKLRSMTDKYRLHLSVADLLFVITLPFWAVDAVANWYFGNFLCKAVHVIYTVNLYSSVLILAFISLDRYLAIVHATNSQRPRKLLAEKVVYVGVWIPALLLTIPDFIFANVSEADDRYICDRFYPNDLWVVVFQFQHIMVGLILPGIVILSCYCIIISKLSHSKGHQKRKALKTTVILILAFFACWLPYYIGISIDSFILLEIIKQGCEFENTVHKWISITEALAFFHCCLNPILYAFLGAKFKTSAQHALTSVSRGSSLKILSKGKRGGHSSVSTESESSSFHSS
As to “CXCL12-α V49A (from UniProt P48061 22-93) (ligand)”, the EC50 (nM), CXCR4 activation, Ca2+-flux in THP-1 cells is 8.6 nM and the Fold Increase of EC50 over wild-type CXCL12-α came to 2.4 fold.
For “CXCL12-α E63A (from UniProt P48061 22-93) (ligand)”, the EC50 (nM), CXCR4 activation, Ca2+-flux in THP-1 cells was 3.7 nM and the Fold Increase of EC50 over wild-type CXCL12-α stood at 1 fold.
Turning to “CXCL12-α K27A (from UniProt P48061 22-93) (ligand)”, the EC50 (nM), CXCR4 activation, Ca2+-flux in THP-1 cells came to 10.1 nM and the Fold Increase of EC50 over wild-type CXCL12-α amounted to 2.8 fold.
“CXCL12-α V39A (from UniProt P48061 22-93) (ligand)”: the EC50 (nM), CXCR4 activation, Ca2+-flux in THP-1 cells was found to be 27.1 nM and the Fold Increase of EC50 over wild-type CXCL12-α was 7.5 fold.
The corresponding values for “CXCL12-α H25R (from UniProt P48061 22-93) (ligand)” are 5.1 nM and 1.4 fold.
The substance “CXCL12-α E60A (from UniProt P48061 22-93) (ligand)” gave an EC50 (nM), CXCR4 activation, Ca2+-flux in THP-1 cells of 4.1 nM and a Fold Increase of EC50 over wild-type CXCL12-α of 1.1 fold.
The corresponding values for “CXCL12-α K64A (from UniProt P48061 22-93) (ligand)” are 5 nM and 1.4 fold.
The corresponding values for “CXCL12-α R20A (from UniProt P48061 22-93) (ligand)” are 4.3 nM and 1.2 fold.
Consider “CXCL12-α R47E (from UniProt P48061 22-93) (ligand)”, for which the EC50 (nM), CXCR4 activation, Ca2+-flux in THP-1 cells is 654 nM and the Fold Increase of EC50 over wild-type CXCL12-α came out at 182 fold.
“CXCL12-α R47A (from UniProt P48061 22-93) (ligand)” returned an EC50 (nM), CXCR4 activation, Ca2+-flux in THP-1 cells of 14.1 nM and a Fold Increase of EC50 over wild-type CXCL12-α of 3.9 fold.
In the case of “CXCL12-α R41A (from UniProt P48061 22-93) (ligand)”, the EC50 (nM), CXCR4 activation, Ca2+-flux in THP-1 cells was 4.3 nM and the Fold Increase of EC50 over wild-type CXCL12-α was determined as 1.2 fold.
The corresponding values for “CXCL12-α K27E (from UniProt P48061 22-93) (ligand)” are 16.8 nM and 4.7 fold.

A further test deals with wild-type CXCL12-α (UniProt P48061). Put plainly: apparent Kd; method not given.
As to “p38-sY3 (CXCR4 N-terminal peptide p38 with sulfotyrosine at positions 7, 12 and 21)”, the Kd was 200 nM.

For the next test the target is unchanged. Put plainly: method not given; reference is unsulfated p38.
Consider “p38-sY3 (CXCR4 N-terminal peptide p38 with sulfotyrosine at positions 7, 12 and 21)”, for which the fold tighter binding than the unsulfated peptide (p38) was 20 fold.
